Assay results taken from patent US20150258192A1, “COMPOSITIONS AND METHODS FOR PREVENTING OR TREATING CHRONIC LUNG ALLOGRAFT DYSFUNCTION (CLAD) AND IDIOPATHIC PULMONARY FIBROSIS (IPF)” (priority 2014, published 2015).
No end group written: not given here.

Experiments:
[1] = tested on: bleomycin-induced lung fibrosis in C57BL/6 mice; experiment: Bleomycin mouse model of pulmonary fibrosis (IPF prevention model); assay type: in vivo; settings: for collagen levels in the lung (Masson's blue trichrome), dose-response: 25, 50 or 75 μg/kg daily IP, day 7-21; for collagen accumulation in the lungs (Masson's Trichrome staining) / development of fibrotic loci formation (H&E staining): daily day 7-21 post bleomycin; for total collagen deposition (from hydroxyproline) vs bleomycin control: post-inflammatory/pre-fibrotic stage
Method: A mouse model of pulmonary fibrosis was generated by administering 0.025 U of bleomycin/PBS intratracheally to C57BL/6 mice. […] At 21 day post bleomycin delivery (for prevention model) or 28 post bleomycin delivery (for treatment model), groups of mice were sacrificed with a sodium pentobarbital injection (120 mg/kg) and the chest cavity was opened. The right mainstem bronchus was ligated and the right lung was removed. The trachea was cannulated and the left lung was perfused with 4% formaldehyde at 21 cm H2O pressure. The tissue blocks then were embedded in paraffin, and […] sections were prepared for staining. Sections from each animal were stained with hematoxylin and eosin (H&E) to visualize cells or with Masson's Trichrome staining to highlight collagen deposition. […] Stained sections were mounted onto a labeled glass slide with organic mounting medium.
Briefly, fibrotic loci in the lungs of the mice were induced by delivering intratracheally about 0.025 U of bleomycin (dissolved in PBS) to C57BL/6 mice. […] Briefly, mice were sacrificed with a sodium pentobarbital injection (120 mg/kg) and the chest cavity was opened. The right mainstem bronchus was ligated and the right lung was removed. The trachea was cannulated and the left lung was perfused with 4% formaldehyde at 21 cm H2O pressure. The tissue blocks then were embedded in paraffin, and […] sections were prepared, and stained with hematoxylin and eosin (H&E; for pathological examination) or Masson's Trichrome (for collagen staining)
Next, total collagen levels in the lungs of the bleomycin-injured mice (FIG. 12) were analyzed quantitatively by computing a constant conversion factor (7.5) for collagen from hydroxyproline concentrations (Neuman R. and Logan M, J Biol Chem., 186(2):549-56, 1950, incorporated by reference).
Next, the effect of increasing doses of MK2 peptide inhibitors on collagen deposition was examined in vivo using the bleomycin mouse model of idiopathic pulmonary fibrosis (prevention model). Briefly, C57-BL/6 mice were subjected to bleomycin injury at day 0.

[2] = tested on: normal human fetal lung fibroblasts (IMR-90); experiment: TGF-β-induced myofibroblast activation (α-SMA immunoblot); assay type: cell-based; settings: pre-treated 1 h, TGF-β1 (2 ng/ml) 48 h
Source text: Cell lysates were immunoblotted against antibodies for α-SMA (a marker for myofibroblast activation) and GAPDH (loading control).

PAK3(h) = PAK3(h) (Homo sapiens, UniProt O75914); experiment: Kinase Profiling Assay; assay type: biochemical; settings: peptide 100 μM
Outline: (§1)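 Specificity of MK2 inhibitory peptides is assessed against a panel of 266 human kinases. Kinase transfers a radiolabeled phosphate from ATP onto a positively charged substrate, which is trapped on a negatively charged filter and quantified by scintillation counting against full-activity control; duplicate determinations.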

CK2α2(h) = CK2α2(h) (Homo sapiens, UniProt P19784); experiment: Kinase Profiling Assay; assay type: biochemical; settings: peptide 100 μM
Outline: as §1

CK1γ3(h) = CK1γ3(h) (Homo sapiens, UniProt Q9Y6M4); experiment: Kinase Profiling Assay; assay type: biochemical; settings: peptide 100 μM
Outline: as §1

PAR-1Bα(h) = PAR-1Bα(h) (Homo sapiens, UniProt Q7KZI7); experiment: Kinase Profiling Assay; assay type: biochemical; settings: peptide 100 μM
Outline: as §1

IGF-1R(h) = target: T1, IGF-1R(h) (Homo sapiens, UniProt P08069); experiment: Kinase Profiling Assay; assay type: biochemical; settings: peptide 100 μM
T1 construct: purchased Millipore
Outline: as §1

GRK5(h) = target: T2, GRK5(h) (Homo sapiens, UniProt P34947); experiment: Kinase Profiling Assay; assay type: biochemical; settings: peptide 100 μM
T2 construct: purchased Millipore
Outline: as §1

Tie2(R849W)(h) = Tie2(R849W)(h) (Homo sapiens, UniProt Q02763, R849W); experiment: Kinase Profiling Assay; assay type: biochemical; settings: peptide 100 μM
Outline: as §1

PKA(h) = PKA(h) (Homo sapiens, UniProt P17612); experiment: Kinase Profiling Assay; assay type: biochemical; settings: peptide 100 μM
Outline: as §1

[3] = tested on: human fetal lung fibroblasts (IMR-90); experiment: TGF-β-mediated fibronectin expression; assay type: cell-based; settings: pre-treated 1 h, TGF-β1 (2 ng/ml) 72 h, conditioned media
Method: Fibronection was measured as secreted fragments in the conditioned media. Equal amounts (14 μg) of total proteins from the conditioned media were loaded in each lane.

TNF-α = experiment: Circulating inflammatory cytokines, bleomycin treatment model; assay type: in vivo, mouse; settings: 24 hours after final administration
Abl(M351T)(h) = Abl(M351T)(h) (Homo sapiens, UniProt P00519, M351T); experiment: Kinase Profiling Assay; assay type: biochemical; settings: peptide 100 μM
Outline: as §1

EGFR(T790M)(h) = EGFR(T790M)(h) (Homo sapiens, UniProt P00533, T790M); experiment: Kinase Profiling Assay; assay type: biochemical; settings: peptide 100 μM
Outline: as §1

HIPK3(h) = target: T3, HIPK3(h) (Homo sapiens, UniProt Q9H422); experiment: Kinase Profiling Assay; assay type: biochemical; settings: peptide 100 μM
T3 construct: purchased Millipore
Outline: as §1

Lck(h) = target: T4, Lck(h) (Homo sapiens, UniProt P06239); experiment: Kinase Profiling Assay; assay type: biochemical; settings: peptide 100 μM
T4 construct: purchased Millipore
Outline: as §1

Aurora-A(h) = target: T5, Aurora-A(h) (Homo sapiens, UniProt O14965); experiment: Kinase Profiling Assay; assay type: biochemical; settings: peptide 100 μM
T5 sequence (O14965 1-403): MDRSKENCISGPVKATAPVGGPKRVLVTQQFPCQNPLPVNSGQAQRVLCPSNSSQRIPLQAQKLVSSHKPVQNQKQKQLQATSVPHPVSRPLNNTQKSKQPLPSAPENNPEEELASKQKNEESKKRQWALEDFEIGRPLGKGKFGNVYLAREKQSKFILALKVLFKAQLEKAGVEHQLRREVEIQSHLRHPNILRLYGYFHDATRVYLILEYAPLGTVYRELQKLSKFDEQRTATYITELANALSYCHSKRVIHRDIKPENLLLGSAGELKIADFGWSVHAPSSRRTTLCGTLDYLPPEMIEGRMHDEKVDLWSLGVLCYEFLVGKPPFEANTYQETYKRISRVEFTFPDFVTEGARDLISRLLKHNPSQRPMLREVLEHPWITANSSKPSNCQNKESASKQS
Outline: as §1

PDGFRα(D842V)(h) = PDGFRα(D842V)(h) (Homo sapiens, UniProt P16234, D842V); experiment: Kinase Profiling Assay; assay type: biochemical; settings: peptide 100 μM
Outline: as §1

Abl(H396P)(h) = Abl(H396P)(h) (Homo sapiens, UniProt P00519, H396P); experiment: Kinase Profiling Assay; assay type: biochemical; settings: peptide 100 μM
Outline: as §1

T4 sequence (P06239 whole entry): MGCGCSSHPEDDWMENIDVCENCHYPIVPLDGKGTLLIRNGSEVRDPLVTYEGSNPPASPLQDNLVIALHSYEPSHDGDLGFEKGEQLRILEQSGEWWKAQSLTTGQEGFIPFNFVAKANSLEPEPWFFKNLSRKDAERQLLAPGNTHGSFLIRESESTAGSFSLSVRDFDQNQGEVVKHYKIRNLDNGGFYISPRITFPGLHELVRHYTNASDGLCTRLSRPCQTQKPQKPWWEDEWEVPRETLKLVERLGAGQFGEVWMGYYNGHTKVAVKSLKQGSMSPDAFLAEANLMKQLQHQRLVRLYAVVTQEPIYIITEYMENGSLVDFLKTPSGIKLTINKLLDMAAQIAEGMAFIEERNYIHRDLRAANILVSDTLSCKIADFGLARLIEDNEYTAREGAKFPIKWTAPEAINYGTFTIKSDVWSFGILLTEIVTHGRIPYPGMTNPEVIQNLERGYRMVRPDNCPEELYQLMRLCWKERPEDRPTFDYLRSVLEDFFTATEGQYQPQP
Chain of CK2α2(h) (P19784 whole entry): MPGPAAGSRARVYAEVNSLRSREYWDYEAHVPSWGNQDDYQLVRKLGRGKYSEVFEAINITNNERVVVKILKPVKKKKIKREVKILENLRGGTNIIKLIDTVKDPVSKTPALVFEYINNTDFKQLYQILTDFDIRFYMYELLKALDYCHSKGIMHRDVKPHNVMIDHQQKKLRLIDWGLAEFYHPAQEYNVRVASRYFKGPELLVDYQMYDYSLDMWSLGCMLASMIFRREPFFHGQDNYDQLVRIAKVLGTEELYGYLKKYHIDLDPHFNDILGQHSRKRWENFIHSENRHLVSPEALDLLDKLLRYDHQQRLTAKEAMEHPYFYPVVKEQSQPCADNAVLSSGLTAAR
T3 sequence (Q9H422 whole entry): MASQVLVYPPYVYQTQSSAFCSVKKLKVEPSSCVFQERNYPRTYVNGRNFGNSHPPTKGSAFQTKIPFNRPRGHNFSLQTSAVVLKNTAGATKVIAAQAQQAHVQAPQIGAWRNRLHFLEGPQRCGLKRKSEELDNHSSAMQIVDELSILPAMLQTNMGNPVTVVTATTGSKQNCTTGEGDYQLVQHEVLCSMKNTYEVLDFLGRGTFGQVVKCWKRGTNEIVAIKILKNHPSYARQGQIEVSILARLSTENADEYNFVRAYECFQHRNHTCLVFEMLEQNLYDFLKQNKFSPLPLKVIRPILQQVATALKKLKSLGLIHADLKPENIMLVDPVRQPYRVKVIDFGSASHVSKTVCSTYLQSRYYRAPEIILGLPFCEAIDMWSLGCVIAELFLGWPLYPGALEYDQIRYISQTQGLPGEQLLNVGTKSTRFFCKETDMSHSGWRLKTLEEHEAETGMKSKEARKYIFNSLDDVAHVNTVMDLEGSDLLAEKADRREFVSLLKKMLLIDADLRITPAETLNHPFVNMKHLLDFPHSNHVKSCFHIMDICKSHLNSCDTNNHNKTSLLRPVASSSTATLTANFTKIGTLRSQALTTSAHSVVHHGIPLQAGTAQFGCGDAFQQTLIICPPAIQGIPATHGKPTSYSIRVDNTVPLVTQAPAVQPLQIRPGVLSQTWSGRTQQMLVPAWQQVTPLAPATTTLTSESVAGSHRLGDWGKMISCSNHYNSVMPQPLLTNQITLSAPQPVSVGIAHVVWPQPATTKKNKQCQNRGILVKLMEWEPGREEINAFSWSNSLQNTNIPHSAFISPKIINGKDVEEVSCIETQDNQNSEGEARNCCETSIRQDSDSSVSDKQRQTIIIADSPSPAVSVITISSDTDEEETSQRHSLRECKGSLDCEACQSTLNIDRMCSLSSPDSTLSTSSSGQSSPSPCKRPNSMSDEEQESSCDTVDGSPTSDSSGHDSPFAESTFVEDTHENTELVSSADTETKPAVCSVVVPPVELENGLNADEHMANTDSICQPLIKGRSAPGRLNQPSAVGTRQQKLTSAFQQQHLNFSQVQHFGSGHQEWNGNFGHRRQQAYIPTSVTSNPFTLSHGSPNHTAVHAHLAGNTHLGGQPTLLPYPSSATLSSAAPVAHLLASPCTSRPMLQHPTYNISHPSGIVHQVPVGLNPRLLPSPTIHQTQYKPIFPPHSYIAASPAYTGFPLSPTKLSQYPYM
Chain of PAK3(h) (O75914 whole entry): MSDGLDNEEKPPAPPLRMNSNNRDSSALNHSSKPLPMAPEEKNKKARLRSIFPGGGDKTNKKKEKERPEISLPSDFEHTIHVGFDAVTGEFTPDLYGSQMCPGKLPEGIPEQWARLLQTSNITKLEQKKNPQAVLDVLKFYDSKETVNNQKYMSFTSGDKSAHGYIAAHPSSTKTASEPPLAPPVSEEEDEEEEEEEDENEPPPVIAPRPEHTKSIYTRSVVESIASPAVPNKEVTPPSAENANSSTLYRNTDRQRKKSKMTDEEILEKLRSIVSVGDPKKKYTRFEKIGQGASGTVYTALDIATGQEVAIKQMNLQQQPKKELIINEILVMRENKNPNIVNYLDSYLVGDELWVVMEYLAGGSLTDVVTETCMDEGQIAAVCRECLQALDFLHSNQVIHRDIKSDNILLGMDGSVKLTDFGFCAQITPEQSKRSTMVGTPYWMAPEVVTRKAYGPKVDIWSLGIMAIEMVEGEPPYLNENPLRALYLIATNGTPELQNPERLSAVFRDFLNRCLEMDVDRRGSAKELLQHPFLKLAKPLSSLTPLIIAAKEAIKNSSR
Chain of PAR-1Bα(h) (Q7KZI7 1-725 isoform Q7KZI7-4): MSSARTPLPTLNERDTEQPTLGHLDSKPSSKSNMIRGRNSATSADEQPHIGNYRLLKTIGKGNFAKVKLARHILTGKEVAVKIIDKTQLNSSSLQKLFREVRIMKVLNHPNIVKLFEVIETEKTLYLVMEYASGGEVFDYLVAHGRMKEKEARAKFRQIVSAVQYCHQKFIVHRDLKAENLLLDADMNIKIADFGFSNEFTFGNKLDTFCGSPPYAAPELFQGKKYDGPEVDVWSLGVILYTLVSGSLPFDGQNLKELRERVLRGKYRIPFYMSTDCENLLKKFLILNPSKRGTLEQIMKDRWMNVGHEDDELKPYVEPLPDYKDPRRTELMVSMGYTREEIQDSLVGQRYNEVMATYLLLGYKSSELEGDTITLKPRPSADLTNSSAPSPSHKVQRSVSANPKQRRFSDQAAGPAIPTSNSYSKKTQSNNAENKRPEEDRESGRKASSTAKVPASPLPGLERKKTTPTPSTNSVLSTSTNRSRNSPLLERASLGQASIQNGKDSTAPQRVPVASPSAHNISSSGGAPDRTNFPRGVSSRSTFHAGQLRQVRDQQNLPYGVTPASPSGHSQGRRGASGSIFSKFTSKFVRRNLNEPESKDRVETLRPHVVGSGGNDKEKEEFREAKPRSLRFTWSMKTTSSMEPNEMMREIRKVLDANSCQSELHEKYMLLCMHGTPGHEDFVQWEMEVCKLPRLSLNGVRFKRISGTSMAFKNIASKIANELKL
T2 sequence (P34947 whole entry): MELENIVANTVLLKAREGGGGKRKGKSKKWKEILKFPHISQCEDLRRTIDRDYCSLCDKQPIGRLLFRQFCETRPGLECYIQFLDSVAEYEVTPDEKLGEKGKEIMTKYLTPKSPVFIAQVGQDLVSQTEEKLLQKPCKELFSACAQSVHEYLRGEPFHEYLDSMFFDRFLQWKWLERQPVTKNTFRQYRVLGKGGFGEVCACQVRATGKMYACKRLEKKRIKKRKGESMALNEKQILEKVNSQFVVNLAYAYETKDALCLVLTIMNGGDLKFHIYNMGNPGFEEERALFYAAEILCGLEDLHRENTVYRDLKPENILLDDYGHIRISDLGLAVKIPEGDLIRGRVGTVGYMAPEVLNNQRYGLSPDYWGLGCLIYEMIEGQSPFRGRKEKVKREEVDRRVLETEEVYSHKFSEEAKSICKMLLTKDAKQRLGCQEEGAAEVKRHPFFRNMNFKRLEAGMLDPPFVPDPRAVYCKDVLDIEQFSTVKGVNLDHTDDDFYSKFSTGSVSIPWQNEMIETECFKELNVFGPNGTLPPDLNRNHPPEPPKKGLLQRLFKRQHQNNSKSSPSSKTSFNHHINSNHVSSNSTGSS
Chain of CK1γ3(h) (Q9Y6M4 whole entry): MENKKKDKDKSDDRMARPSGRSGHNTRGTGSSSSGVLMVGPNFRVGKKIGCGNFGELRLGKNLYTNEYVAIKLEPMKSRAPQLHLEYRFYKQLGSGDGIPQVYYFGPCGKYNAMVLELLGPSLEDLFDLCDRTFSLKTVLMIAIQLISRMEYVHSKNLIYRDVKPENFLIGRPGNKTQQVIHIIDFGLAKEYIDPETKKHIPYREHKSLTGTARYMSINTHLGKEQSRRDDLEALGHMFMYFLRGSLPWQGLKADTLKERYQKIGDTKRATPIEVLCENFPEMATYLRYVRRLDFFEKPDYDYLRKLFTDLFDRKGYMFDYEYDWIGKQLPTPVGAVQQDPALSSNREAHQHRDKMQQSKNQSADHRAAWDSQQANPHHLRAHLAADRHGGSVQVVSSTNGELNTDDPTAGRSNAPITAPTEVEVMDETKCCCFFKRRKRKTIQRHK

YARAAARQARAKALNRQLGVA (Mammal) [MMI-0200]
collagen levels in the lung (Masson's blue trichrome), dose-response [1]: did not reduce, but rather increased | protein level of α-smooth muscle actin (α-SMA) [2]: no changes | % activity (PAK3(h)): 50% | % activity (CK2α2(h)): 88% | % activity (CK1γ3(h)): 96% | % activity (PAR-1Bα(h)): 110% | % activity (IGF-1R(h)): 49% | % activity (GRK5(h)): 135% | % activity (Tie2(R849W)(h)): 89% | % activity (PKA(h)): 110% | protein level of fibronectin [3]: no changes

YARAAARQARAKALARQLGVAA [MMI-0100]
collagen levels in the lung (Masson's blue trichrome), dose-response [1]: a decrease in collagen levels | collagen accumulation in the lungs (Masson's Trichrome staining) ([1]; intraperitoneally): reduced collagen accumulation | development of fibrotic loci formation (H&E staining) ([1]; intraperitoneally): significantly reduced | total collagen deposition (from hydroxyproline) vs bleomycin control ([1]; nebulized): significantly decreased | total collagen deposition (from hydroxyproline) vs bleomycin control ([1]; systemic (IP)): significantly decreased | collagen accumulation in the lungs (Masson's Trichrome staining) ([1]; via nebulization): reduced collagen accumulation | development of fibrotic loci formation (H&E staining) ([1]; via nebulization): significantly reduced | protein level of α-smooth muscle actin (α-SMA) [2]: decreases | plasma level of TNF-α (TNF-α; intraperitoneal): significantly reduced | plasma level of TNF-α (TNF-α; nebulized): significantly reduced | protein level of fibronectin [3]: decreases

HRRIKAWLKKIKALARQLGVAA (Mammal) [MMI-0500]
% activity (Abl(M351T)(h)): 61% | % activity (EGFR(T790M)(h)): 70% | % activity (HIPK3(h)): 85% | % activity (PAR-1Bα(h)): 97% | % activity (Lck(h)): 359% | % activity (Aurora-A(h)): 110% | % activity (PDGFRα(D842V)(h)): 170% | % activity (Abl(H396P)(h)): 51% | % activity (PKA(h)): 118%

KAFAKLAARLYRKALARQLGVAA [MMI-0400]
% activity (CK2α2(h)): 96% | % activity (IGF-1R(h)): 90% | % activity (PDGFRα(D842V)(h)): 118% | % activity (GRK5(h)): 131% | % activity (Tie2(R849W)(h)): 108%

FAKLAARLYRKALARQLGVAA [MMI-0300]
% activity (Abl(M351T)(h)): 90% | % activity (PAK3(h)): 140% | % activity (CK1γ3(h)): 125% | % activity (EGFR(T790M)(h)): 100% | % activity (HIPK3(h)): 93% | % activity (Lck(h)): -2% | % activity (Aurora-A(h)): 92% | % activity (Abl(H396P)(h)): 101%
